Source: patent publication US20220251202A1 (ASHER BIOTHERAPEUTICS, published 2022)
Where a chain is given by its changes, count along the chain named. One block for each binder: values may come before it.

Target: T1, mouse CD8 (on mouse CD8+ T cells) (mouse, UniProt P01731 28-247; P10300 22-213)
T1 construct: whole, on cells
Assay: flow cytometry on mouse splenocytes, anti-hFc MFI
Protocol: Fresh splenocytes were incubated with the indicated antibodies for 2 hours at 4° C. The cells were then stained with antibodies against CD3, CD4, CD8 and anti-hFc. anti-hFc was used to measure the binding of CD8-IL2 fusion containing hFc. Cells were washed and analyzed by flow cytometry.
The binding affinity of anti-mouse CD8 antibodies was determined through flow cytometry analysis. […] The xCD8ab2.1 clone is derived from xCD8ab2 by introduction of mutations N95A (VH) and D92A (VK). After incubation with the anti-mouse CD8 antibody, the cells were then stained with antibodies against CD3, CD4, CD8 and anti-hFc (HP6017, Biolegend), the latter of which was used to measure the binding of CD8-IL2 fusion containing hFc. Stained cells were washed and analyzed by flow cytometry and mean fluorescence intensity (MFI) of staining with anti-hFc was used to denote binding.

binding result: binds
B1: xmCD8ab2 (published clone YTS156.7.7) (antibody, V domains shown)
VH: EVKLQESGPSLVQPSQTLSLTCSVSGFSLISDSVHWVRQPPGKGLEWMGGIWADGSTDYNSALKSRLSISRDTSKSQGFLKMNSLQTDDTAIYFCTSNRESYYFDYWGQGTMVTVSS
VL: DIQMTQSPASLSASLGDKVTITCQASQNIDKYIAWYQQKPGKAPRQLIHYTSTLVSGTPSRFSGSGSGRDYSFSISSVESEDIASYYCLQYDTLYTFGAGTKLELK
notes: Carries a human Fc; also called xCD8ab2

binding result: binds
B2: xmCD8ab2.1 (antibody, V domains shown)
VH: B1 VH with N98A
VL: B1 VL with D92A
notes: Carries a human Fc; also called xCD8ab2.1
